Laboratory results taken from doi:10.1101/2025.11.04.686606.

Target: PcoAA14A_dCTR, disordered C-terminal region alone of PcoAA14A (Pycnoporus coccineus)
Test: SEC-MALLS

Work on “PcoAA14A_dCTR, disordered C-terminal region alone of PcoAA14A (domain or fragment)” yielded a stoichiometry N of 2.
